The results in this text go back to patent US20250339569A1, “CARBONIC ANHYDRASE IX LIGANDS” (priority 2021, published 2025).

What is called pKd is the Kd on a negative log10 scale, so that one unit is a factor of ten. Low values mean a large Kd, high ones a small Kd.

For experiment [1], the target named is murine carbonic anhydrase 9 (CAIX) (mouse) (UniProt Q8VHB5). The experiment in a line: radioligand saturation binding on CHO-msCAIX cells, 8 h at 37 °C, experiment i.
The target is the same in experiment [2]. In words: radioligand saturation binding on CHO-msCAIX cells, 8 h at 37 °C, single experiment.

Sequence of murine carbonic anhydrase 9 (CAIX) (mouse) (Q8VHB5 32-437 limits assumed): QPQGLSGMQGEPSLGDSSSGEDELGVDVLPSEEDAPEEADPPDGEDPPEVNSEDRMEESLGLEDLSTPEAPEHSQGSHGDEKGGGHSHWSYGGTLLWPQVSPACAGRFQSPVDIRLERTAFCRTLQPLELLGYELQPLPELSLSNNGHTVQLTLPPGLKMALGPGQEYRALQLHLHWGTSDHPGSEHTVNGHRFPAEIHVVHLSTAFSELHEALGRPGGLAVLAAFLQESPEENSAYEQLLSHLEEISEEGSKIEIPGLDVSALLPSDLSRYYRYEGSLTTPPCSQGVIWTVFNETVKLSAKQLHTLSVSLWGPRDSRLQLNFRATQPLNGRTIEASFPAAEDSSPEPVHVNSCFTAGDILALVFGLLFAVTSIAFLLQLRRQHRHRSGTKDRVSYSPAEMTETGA

For [^111In]In-DPI-4452 (peptide), in experiment [1], the Bmax stood at 5.6 fmol/µg prot and the negative-log Kd (pKd) was 7.2 -log10(M). In experiment [2], the Mean Bmax was 5.6 fmol/µg prot.
